Measurements: patent US20180030136A1 (GlaxoSmithKline, published 2018)

How the values were obtained:
[1] = biological target: T1, cynomolgus ICOS (cynomolgus); experiment: Biacore, cyno ICOS
T1 construct: also called cyno ICOS; Biacore cyno

[2] = biological target: T2, Cyno ICOS-Fc (cynomolgus; rabbit); experiment: BIAcore T200, antibody captured on anti-human IgG, ICOS (rabbit Fc) as analyte, 25 C, 1:1 model
T2 construct: also called cyno ICOS (rabbit Fc)
Protocol: The binding kinetics affinity of the humanized H2L5 hIgG4PE antibody was determined used the BIAcore T200Anti-human IgG on Fc2 of a CM5 chip Anti-ICOS H2L5 hIgG4PE captured on the surface. Anti-human IgG surface blocked with 0.1 mg/mL hIgG1 control to prevent non-specific binding of rabbit Fc. Human and cyno ICOS (rabbit Fc) passed over the captured antibodies at 256 nM, 64 nM, 16 nM, 4 nM and 1 nM. Buffer alone was used to double reference binding curves. MgCl₂ was used to regenerate surface. Run carried out at 25° C. Data fitted to 1:1 model using T200 evaluation software. Antibody concentration: 2.5 μg/mL
The ICOS binding data was fitted to a 1:1 kinetics model using the T200 data analysis software.

[3] = biological target: T3, human ICOS on cells (human, UniProt Q9Y6W8 21-167); experiment: cell-based or functional assay
T3 sequence: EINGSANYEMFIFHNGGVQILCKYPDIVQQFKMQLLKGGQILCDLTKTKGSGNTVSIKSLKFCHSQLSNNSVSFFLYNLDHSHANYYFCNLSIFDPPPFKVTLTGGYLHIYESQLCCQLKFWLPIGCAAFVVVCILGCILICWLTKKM

B1: ICOS mAb clone 88.2 (antibody, V domains shown)
VH: QVQLQQPGAELVRPGASVKLSCKASGYSFTSYWINWVKQRPGQGLEWIGNIYPSDSYTNYNQMFKDKATLTVDKSSNTAYMQLTSPTSEDSAVYYCTRWNLSYYFDNNYYLDYWGQGTTLTVSS
VL: QAVVTQESALTTSPGETVTLTCRSSTGAVTTSNYANWVQEKPDHLFTGLIGGTNNRAPGVPARFSGSLIGDKAALTITGAQTEDEAIYFCALWYNNHLVFGGGTKLTVL
notes: murine anti-human ICOS mAb
How did the Kd [1] turn out when B1 was run?
Its Kd is 23 nM.

B2: H2L5 hIgG4PE (antibody)
heavy: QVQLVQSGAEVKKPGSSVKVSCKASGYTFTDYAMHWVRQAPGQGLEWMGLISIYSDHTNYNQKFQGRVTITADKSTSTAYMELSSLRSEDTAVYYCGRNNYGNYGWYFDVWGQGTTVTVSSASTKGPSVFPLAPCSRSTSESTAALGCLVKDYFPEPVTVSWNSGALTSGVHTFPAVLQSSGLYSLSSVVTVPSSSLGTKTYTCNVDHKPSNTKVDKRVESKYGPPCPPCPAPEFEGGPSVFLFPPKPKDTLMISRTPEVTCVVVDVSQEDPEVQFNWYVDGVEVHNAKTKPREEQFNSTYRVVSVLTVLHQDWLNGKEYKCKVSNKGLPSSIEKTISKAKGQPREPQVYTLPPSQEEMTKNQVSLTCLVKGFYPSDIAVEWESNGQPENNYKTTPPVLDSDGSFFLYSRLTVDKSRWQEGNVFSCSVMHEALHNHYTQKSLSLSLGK
light: EIVLTQSPATLSLSPGERATLSCSASSSVSYMHWYQQKPGQAPRLLIYDTSKLASGIPARFSGSGSGTDYTLTISSLEPEDFAVYYCFQGSGYPYTFGQGTKLEIKRTVAAPSVFIFPPSDEQLKSGTASVVCLLNNFYPREAKVQWKVDNALQSGNSQESVTEQDSKDSTYSLSSTLTLSKADYEKHKVYACEVTHQGLSSPVTKSFNRGEC
notes: also called H2L5 IgG4PE; copies: 2 + 2
For B2, which Kd [2] is on record?
The Kd was 0.949 nM.

What about the koff [2] of the same binder?
The koff was 0.000371 s⁻¹.

What about the kon [2] of the same binder?
The kon was 391000 M⁻¹ s⁻¹.

And the “EC50 CD8+OX40+, donor 1149M52, 24 hr” value [3]?
Its value is 1.5 mg/L.

What about the “EC50 IFN-γ, donor 1136F50, 48 hr” value [3] of the same binder?
The value was 1.5 mg/L.

B3: ICOS mAb clone 422.2 (antibody, V domains shown)
VH: QVQLQQSGPELVRPGESVKISCMGSGYTFTDYAMHWVKQSHAKSLEWIGLISIYSDHTNYNQKFQGKATMTVDKSSSTAYMELARLTSEDSAIYYCGRNNYGNYGWYFDVWGAGTTVTVSS
VL: ENVLTQSPAIMSASPGEKVTMTCSASSSVSYMHWYQQKSITSPKLWIYDTSKLASGVPGRFSGSGSGNSYSLTISSMEAEDVATYYCFQGSGYPYTFGGGTKLEIKR
notes: murine hybridoma mAb
How did the Kd [1] turn out when B3 was run?
The Kd was 4.46 nM.
